Experiments:
human Trop-2 (human) [1] = target: human Trop-2 (human) (UniProt P09758); experiment: cell binding assay on NCI-N87 cells, anti-mouse-HRP secondary, luminescence
human Trop-2 (human) [2] = target: human Trop-2 (human) (UniProt P09758); experiment: cell binding assay (cell line not given)

Sequence of human Trop-2 (human) (P09758 27-323): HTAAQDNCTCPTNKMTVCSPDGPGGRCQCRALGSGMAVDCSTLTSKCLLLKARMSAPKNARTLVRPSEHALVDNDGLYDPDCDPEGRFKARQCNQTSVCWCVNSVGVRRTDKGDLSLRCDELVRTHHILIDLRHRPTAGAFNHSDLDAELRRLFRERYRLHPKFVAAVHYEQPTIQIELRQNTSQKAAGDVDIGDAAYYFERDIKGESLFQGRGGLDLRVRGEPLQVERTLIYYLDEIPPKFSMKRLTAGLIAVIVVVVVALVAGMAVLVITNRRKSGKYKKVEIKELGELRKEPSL

| BMax (relative luminescent units) (human Trop-2 (human) [1]) | Kd (human Trop-2 (human) [2]) | Substance |
| --- | --- | --- |
| 6020 |  | MAB650 murine monoclonal antibody against human Trop-2 (R&D Systems) |
| 8470 |  | 162-46.2 murine monoclonal antibody against human Trop-2 |
|  | 1.2 nM | hRS7-CL2A-SN-38 (anti-Trop-2 ADC, hRS7 IgG conjugated to CL2A-SN-38) (antibody) |
|  | 1.2 nM | hRS7-CL2-SN-38 (anti-Trop-2 ADC, hRS7 IgG conjugated to CL2-SN-38) (antibody) |

Source: US20220054648A1
